Target: HA1.7 TCR-β chain (human)
Assay: co-IP

## HA1.7 TCR-α chain
  stoichiometry N: 1

— article PMC2198996
